Source: article PMC3762913

Key:
Details in all cases: remark: other sources report otherwise
[1] = target: T1, wild type (WT) human peripheral myelin protein 22 (PMP22) (human), Q01453; assay: cross-linking
T1 chain: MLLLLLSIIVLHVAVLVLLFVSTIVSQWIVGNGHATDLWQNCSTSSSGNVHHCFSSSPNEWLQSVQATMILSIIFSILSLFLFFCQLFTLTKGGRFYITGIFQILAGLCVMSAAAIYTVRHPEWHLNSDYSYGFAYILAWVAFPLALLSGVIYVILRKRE

[2] = target: T1, wild type (WT) human peripheral myelin …; assay: cross-linking
[3] = target: T1, wild type (WT) human peripheral myelin …; assay: cross-linking
[4] = target: T1, wild type (WT) human peripheral myelin …; assay: cross-linking
[5] = target: T1, wild type (WT) human peripheral myelin …; assay: SEC

B1: wild type (WT) human peripheral myelin protein 22 (PMP22), Q01453 1-160 (natural protein)
chain: MLLLLLSIIVLHVAVLVLLFVSTIVSQWIVGNGHATDLWQNCSTSSSGNVHHCFSSSPNEWLQSVQATMILSIIFSILSLFLFFCQLFTLTKGGRFYITGIFQILAGLCVMSAAAIYTVRHPEWHLNSDYSYGFAYILAWVAFPLALLSGVIYVILRKRE
A fraction of cross-linked dimer [1] of 0.6, a fraction of cross-linked dimer [2] of 0.5 and a stoichiometry N [2] of 2 were found for B1 in this work. The fraction of cross-linked dimer [3] was 0.2, the fraction of cross-linked dimer [4] was 0.3 and the stoichiometry N [5] was 2.
